Assay results taken from publication PMC10522976.

Molecular target: Cynomolgus MSLN (cynomolgus macaque)

B1: VH 3C9 (human antibody heavy chain variable domain) (VHH)
VHH: DVQLVESGGGVVQPGRSLRLSCAASGFTFSSYAMHWVRQAPGKGLEWVSSISGNSLYKYYADSVKGRFTISRDDSTNTLYLQMNSLRAEDTATYYCTRHWAVGNWGQGTLVTVSS
Kd: > 100 nM
